This assay has as its system hepatic stellate cells. Put plainly: Apoptosis of activated stellate cells transfected with C/EBPβ constructs, annexin-V-PE binding. Conditions: apoptosis induced by dominant negative MEKK1, IκBα or RSK mutants or by lactacystin. The class given is cell-based, mouse. The source says: FIG. 1 provides data showing that phosphorylation of C/EBPβ on Thr^217 is required for hepatic stellate cell survival. Panel A provides phosphopeptide maps of in vivo labeled endogenous C/EBPβ in day-4 quiescent and activated primary mouse stellate cells cultured from the time of isolation on EHS or collagen type I matrix, respectively. The arrow indicates the peptide containing Phospho-Thr^217 in activated cells. […] Panel B provides phosphopeptide maps of in vitro labeled C/EPBβ. Active p90RSK phosphorylated C/EPBβ, but not C/EBPβ-Ala^217 on Thr^217 in vitro (arrowheads). Panel C provides results for cells cultured on collagen type I transfected with MSV-C/EBPβ antisense (AS), MSV-C/EBPβ sense (S), or MSV-C/EBPβ-Ala^217 together with CMV-GFP (green fluorescent protein) and p90RSK (1 μg each), as indicated in the Figure. Four hours after transfection, annexin-V-PE binding to plasma membranes was determined. The values presented are the percentage of transfected cells (green) that were annexin-V-PE (+) (red) (P<0.05 for C/EBPβ AS, and C/EBPβ-Ala^217). Panel D provides results for cells transfected as in […] with vectors expressing dominant negative mutants for MEKK1, IκBα, or p90RSK, or treated with the proteasome inhibitor lactacystin (10 μM) (closed bars), and co-transfected with MSV-C/EBPβ-Glu^217 (1 μg each) (open bars) as indicated. Annexin-V-PE binding was determined as described for Panel A (P<0.05 for C/EBPβ-Glu^217). Panel E provides results for cells transfected as described for Panel C, with a dominant-negative p90RSK, treated with FAS (100 nM for 6 hours) or cultured in a serum-free medium for 6 hours (closed bars), and co-transfected with MSV-C/EBPβ-Glu^217 (1 μg each) (open bars), as indicated. Cell death was determined by nuclear staining with Hoechst 33342 (P<0.05 for C/EBPβ-Glu^217 in RSK mut and FAS-treated cells).
FIG. 4 provides results showing that C/EBPβ PThr^217 associates with procaspases 1 and 8, and inhibits their activation. Panel A provides schematic representations of C/EBPβ peptides. The activation (dotted bars), DNA binding (solid bars) and dimerization (hatched bars) domains are shown. […] Panel C provides results showing that C/EBPβ and procaspase 8 were detected in activated stellate cells isolated from C/EBPβ^+/+ mice by confocal microscopy using specific antibodies (Santa Cruz Biotechnology). Control C/EBPβ^−/− stellate cells were negative for C/EBPβ, positive for procaspase 8, and apoptotic. Panel D provides immunoblot results for MSV vectors expressing C/EBPβ-HA (hemagglutinin protein) peptides (0.3 μg) transfected into activated stellate cells. The expressed peptides were immunoprecipitated with anti-HA antibodies. C/EBPβ-PThr^217 was detected using a specific antibody, only in cells expressing wild-type C/EBPβ. […] RSK was associated with all C/EBPβ peptides. Neither C/EBPβ nor procaspases 1 and 8 were detected in C/EBPβ immunoprecipitates from cells expressing C/EBPβ AS. Reciprocal immunoprecipitations of procaspases and RSK confirmed these associations.
Adult male Sprague-Dawley rats and adult male C/EBPβ^+/+ and C/EBPβ^−/− (Screpanti et al., supra; and Buck et al., (1999), supra), C/EBPβ-Ala^217 and C/EBPβ-Asp^105 transgenic mice were used for the isolation of primary hepatic stellate cells (Houglum et al., supra). Primary hepatic stellate cells were isolated by collagenase/pronase perfusion and purified by a single step density Nycodenz gradient (Accurate Chemical & Scientific) as known in the art (See, Lee et al., (1995), supra). Cells were plated on type I collagen matrix (Becton Dickinson) or EHS matrix (Matrigel, Collaborative Biomedical Products). Cells were cultured with 10% fetal calf serum/10% fetal bovine serum and transfected with lipofectamine (GIBCO) for DNA vectors or with the Chariot reagent (Active Motif) for peptides (10 μM) as known in the art (See, Houglum et al., supra; and Morris et al., J. Biol. Chem., 274:24942-24946 (1999)). […]

B1: C/EBPβ-Glu^217: modified murine C/EBPβ with mutation of Thr^217 to glutamic acid (SEQ ID NO:4), phosphorylation mimic (protein, listed as Mus musculus)
chain: MHRLLAWDAACLPPPPAAFRPMEVANFYYEPDCLAYGAKAARAAPRAPAAEPAIGEHERAIDFSPYLEPLAPAADFAAPAPAHHDFLSDLFADDYGAKPSKKPADYGYVSLGRAGAKAAPPACFPPPPPAALKAEPGFEPADCKRADDAPAMAAGFPFALRAYLGYQATPSGSSGSLSTSSSSSPPGTPSPADAKAAPAACFAGPPAAPAKAKAKKZVDKLSDEYKMRRERNNIAVRKSRDKAKMRNLETQHKVLELTAENERLQKKVEQLSRELSTLRNLFKQLPEPLLASAGHC
For B1, the “Rescue from induced apoptosis by expressed construct” value was “partially inhibited”.
